The values below come from article PMC9060465, “Structural determinants of dual incretin receptor agonism by tirzepatide” (Proceedings of the National Academy of Sciences of the …, 2022).

Assay [1] addresses human GIPR expressed in HEK293 cells (human) (UniProt P48546). Kind of assay: radioligand binding.
For assay [2], the target named is human GLP-1R expressed in HEK293 cells (human) (UniProt P43220). In words: radioligand binding.
Assay [3] deals with isolated extracellular domain (ECD) of human GLP-1R, amino acids 24 to 145 (human) (UniProt P43220). In words: SPR. Background: Surface plasmon resonance follows binding to a sensor surface in real time, without labels.
isolated extracellular domain (ECD) of human GLP-1R, amino acids 24 to 145 (human), sequence (P43220 24-145): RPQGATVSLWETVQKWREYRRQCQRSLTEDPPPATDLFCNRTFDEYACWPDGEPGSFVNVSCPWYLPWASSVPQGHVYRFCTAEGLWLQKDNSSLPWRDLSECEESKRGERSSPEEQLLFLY
Assay [4] has as its target isolated extracellular domain (ECD) of human GIPR, amino acids 26 to 138 (human) (UniProt P48546). Kind of assay: SPR.
In assay [5] the target is mouse GLP-1R, endogenous in pancreatic islets (mouse (endogenous in pancreatic islets)) (UniProt O35659).
mouse GLP-1R, endogenous in pancreatic islets (mouse (endogenous in pancreatic islets)), sequence (O35659 22-463): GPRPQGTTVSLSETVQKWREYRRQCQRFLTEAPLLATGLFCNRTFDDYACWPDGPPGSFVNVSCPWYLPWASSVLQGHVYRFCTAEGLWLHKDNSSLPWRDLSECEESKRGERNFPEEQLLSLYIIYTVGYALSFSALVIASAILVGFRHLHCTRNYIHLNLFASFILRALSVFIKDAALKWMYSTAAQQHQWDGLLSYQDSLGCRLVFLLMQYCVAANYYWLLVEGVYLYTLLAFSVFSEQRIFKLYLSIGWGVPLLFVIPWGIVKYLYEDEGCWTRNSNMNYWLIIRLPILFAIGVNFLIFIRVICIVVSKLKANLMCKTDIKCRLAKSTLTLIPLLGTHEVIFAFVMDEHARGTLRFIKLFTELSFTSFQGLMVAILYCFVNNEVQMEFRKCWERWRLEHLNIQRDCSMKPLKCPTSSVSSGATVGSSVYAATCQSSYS
The target of assay [6] is human GLP-1R expressed in HEK293 cells (human) (UniProt P43220). Particulars: ligand.

human GLP-1R expressed in HEK293 cells (human), sequence (P43220 24-463): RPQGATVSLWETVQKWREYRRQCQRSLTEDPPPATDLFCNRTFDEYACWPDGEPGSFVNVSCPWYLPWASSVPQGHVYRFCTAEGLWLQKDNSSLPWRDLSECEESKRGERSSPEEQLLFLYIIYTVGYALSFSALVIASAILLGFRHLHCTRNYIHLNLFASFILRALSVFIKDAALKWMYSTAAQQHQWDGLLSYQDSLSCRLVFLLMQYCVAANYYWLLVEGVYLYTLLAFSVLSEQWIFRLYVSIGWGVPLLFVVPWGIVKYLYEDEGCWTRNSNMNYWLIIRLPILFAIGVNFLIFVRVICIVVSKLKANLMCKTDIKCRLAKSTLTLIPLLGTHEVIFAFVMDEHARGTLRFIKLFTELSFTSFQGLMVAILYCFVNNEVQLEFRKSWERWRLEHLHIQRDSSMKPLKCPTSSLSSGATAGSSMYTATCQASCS
isolated extracellular domain (ECD) of human GIPR, amino acids 26 to 138 (human), sequence (P48546 26-138): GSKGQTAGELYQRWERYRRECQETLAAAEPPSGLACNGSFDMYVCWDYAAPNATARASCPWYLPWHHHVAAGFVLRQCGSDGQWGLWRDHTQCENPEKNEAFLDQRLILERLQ
human GIPR expressed in HEK293 cells (human), sequence (P48546 22-466): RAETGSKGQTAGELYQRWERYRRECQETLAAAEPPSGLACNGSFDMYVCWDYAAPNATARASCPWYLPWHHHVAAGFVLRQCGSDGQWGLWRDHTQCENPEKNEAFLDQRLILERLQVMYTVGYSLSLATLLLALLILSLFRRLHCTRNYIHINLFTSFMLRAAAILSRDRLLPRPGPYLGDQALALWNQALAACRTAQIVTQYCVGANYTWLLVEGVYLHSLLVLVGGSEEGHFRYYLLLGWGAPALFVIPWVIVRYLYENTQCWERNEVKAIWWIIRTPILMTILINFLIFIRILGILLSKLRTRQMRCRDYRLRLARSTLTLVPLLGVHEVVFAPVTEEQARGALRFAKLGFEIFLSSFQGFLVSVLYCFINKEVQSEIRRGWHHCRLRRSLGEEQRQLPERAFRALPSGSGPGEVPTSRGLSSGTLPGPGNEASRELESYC

Consider “tirzepatide analog lacking the lipid moiety (TZP^ΔC20) (peptide)”, for which the other in assay [1] was determined as 4 fold; in assay [2] it was 5 fold. The dissociation constant Kd (as a rule, the constant that tells how readily two partners part at equilibrium) in assay [3] came to 111 nM; in assay [4] it was 1700 nM.

As for tirzepatide^ΔC20,Y1H-AF647 (peptide), the intracellular fluorescence intensity of islet cells from wild-type mice, 30 nM labelled ligand for 30 min, confocal microscopy; negligible (≤4.0) after exendin-4(9-39) or in Glp-1r null islets in assay [5] stood at 85.3.

Turning to GLP-1^AF647 (ligand), in assay [5], the intracellular fluorescence intensity of islet cells from wild-type mice, 30 nM labelled ligand for 30 min, confocal microscopy; negligible (≤4.0) after exendin-4(9-39) or in Glp-1r null islets was 104.

On to glucagon-like peptide-1 (GLP-1), for which, in assay [6], the inhibition constant Ki (as a rule, the equilibrium dissociation constant of an inhibitor or competing ligand from its target) was determined as 0.594 nM.

As to tirzepatide (LY3298176) (peptide), the other in assay [2] turned out to be 5 fold. In assay [4], the dissociation constant Kd is 4200 nM.

In turn, tirzepatide^AF647 (peptide) displayed an intracellular fluorescence intensity of islet cells from wild-type mice, 30 nM labelled ligand for 30 min, confocal microscopy; negligible (≤4.0) after exendin-4(9-39) or in Glp-1r null islets in assay [5] of 46.
